Measured values published in patent US20090227507A1, “Angiotensin (1-7) Dosage Forms and Uses Thereof” (UNIVERSITY OF SOUTHERN CALIFORNIA, priority 2008, published 2009).

Experiment: Hematology profile (CBC with differential, platelet count) in healthy men
Assay type: in vivo, human
Description: Pharmacological Effect: The following evaluations (under efficacy and safety in the protocol) were performed: • Effects on the number of mature blood cells: • 1. CBC (with differential), platelet count, reticulocyte count. • Effects on early hematopoietic progenitor cells and mature lymphocyte subsets in the periphery: • 1. Flow cytometry to evaluate frequency of peripheral blood progenitor cells (eg, CD34^+) and lymphocyte subsets (eg, CD3, CD4, CD8) in peripheral blood. • 2. Collection of blood for later possible culture for progenitor cells (eg, colony forming units-granulocyte/macrophage [CFU-GM]) to evaluate potential effects on CD34^+ hematopoietic progenitor cells in peripheral blood. • 3.
The effect of USB003 on the number of mature blood cells was assessed by the complete blood count with differential, platelet and reticulocyte counts. The effects on early hematopoietic progenitor cells and mature lymphocyte subsets in the periphery were assessed by flow cytometry. In addition, blood was collected and processed to enable culture of progenitors at a later time.
Red blood cell (RBC) count, RBC indices, white blood cell count (WBC) with differential, reticulocyte count, platelet count, hemoglobin (Hb), hematocrit (Hct), plasma hemoglobin, peripheral flow cytometry, including CD34^+, flow cytometry for enumeration of CD3, CD4, and CD8 lymphocytes, and culture for progenitor cells in peripheral blood including colony-forming units-granulocyte/macrophage (CFU-GM).

[1] = 200 μg/kg, N = 9, baseline to Day 8
[2] = 200 μg/kg, N = 9, baseline to Day 20

For Asp-Arg-Val-Tyr-Ile-His-Pro [USB003], the absolute neutrophil concentrations (200 ug/kg and 300 ug/kg, at 20 days) was “apparent dose-related increase”, the “shifts in eosinophils from high at baseline to normal” value (200 μg/kg dose group, Day 8 and Day 20, compared with placebo) was “notable number of subjects” and the “Absolute Eosinophils shift H-N, number of subjects” value [1] was 1. The “Absolute Eosinophils shift L-N, number of subjects” value [1] was “— (“—” = 0)”, the “Absolute Eosinophils shift N-H, number of subjects” value [1] was “— (“—” = 0)” and the “Absolute Eosinophils shift N-L, number of subjects” value [1] was “— (“—” = 0)”. For the same substance, the “Absolute Reticulocytes shift H-N, number of subjects” value [1] was “— (“—” = 0)”, the “Absolute Reticulocytes shift L-N, number of subjects” value [1] was “— (“—” = 0)” and the “Absolute Reticulocytes shift N-H, number of subjects” value [1] was “— (“—” = 0)”. For the same substance, the “Absolute Reticulocytes shift N-L, number of subjects” value [1] was “— (“—” = 0)”, the “Eosinophils shift H-N, number of subjects” value [1] was 3 and the “Eosinophils shift L-N, number of subjects” value [1] was “— (“—” = 0)”. The “Eosinophils shift N-H, number of subjects” value [1] was “— (“—” = 0)”, the “Eosinophils shift N-L, number of subjects” value [1] was “— (“—” = 0)” and the “Hematocrit shift H-N, number of subjects” value [1] was “— (“—” = 0)”. The “Hematocrit shift L-N, number of subjects” value [1] was “— (“—” = 0)”, the “Hematocrit shift N-H, number of subjects” value [1] was “— (“—” = 0)” and the “Hematocrit shift N-L, number of subjects” value [1] was “— (“—” = 0)”. The “Hemoglobin shift H-N, number of subjects” value [1] was “— (“—” = 0)”, the “Hemoglobin shift L-N, number of subjects” value [1] was “— (“—” = 0)” and the “Hemoglobin shift N-H, number of subjects” value [1] was “— (“—” = 0)”. The “Hemoglobin shift N-L, number of subjects” value [1] was “— (“—” = 0)”, the “Lymphocytes shift H-N, number of subjects” value [1] was 1 and the “Lymphocytes shift L-N, number of subjects” value [1] was 1. For the same substance, the “Lymphocytes shift N-H, number of subjects” value [1] was “— (“—” = 0)”, the “Lymphocytes shift N-L, number of subjects” value [1] was “— (“—” = 0)” and the “Plasma Hemoglobin shift H-N, number of subjects” value [1] was “— (“—” = 0)”. The “Plasma Hemoglobin shift L-N, number of subjects” value [1] was “— (“—” = 0)”, the “Plasma Hemoglobin shift N-H, number of subjects” value [1] was “— (“—” = 0)” and the “Plasma Hemoglobin shift N-L, number of subjects” value [1] was “— (“—” = 0)”. The “Platelet Count shift H-N, number of subjects” value [1] was “— (“—” = 0)”, the “Platelet Count shift L-N, number of subjects” value [1] was “— (“—” = 0)” and the “Platelet Count shift N-H, number of subjects” value [1] was 1. The “Platelet Count shift N-L, number of subjects” value [1] was “— (“—” = 0)”, the “RBC shift H-N, number of subjects” value [1] was “— (“—” = 0)” and the “RBC shift L-N, number of subjects” value [1] was “— (“—” = 0)”. For the same substance, the “RBC shift N-H, number of subjects” value [1] was “— (“—” = 0)”, the “RBC shift N-L, number of subjects” value [1] was “— (“—” = 0)” and the “Segmented Neutrophils shift H-N, number of subjects” value [1] was 1. The “Segmented Neutrophils shift L-N, number of subjects” value [1] was “— (“—” = 0)”, the “Segmented Neutrophils shift N-H, number of subjects” value [1] was “— (“—” = 0)” and the “Segmented Neutrophils shift N-L, number of subjects” value [1] was “— (“—” = 0)”. For the same substance, the “Absolute Eosinophils shift H-N, number of subjects” value [2] was “— (“—” = 0)”, the “Absolute Eosinophils shift L-N, number of subjects” value [2] was “— (“—” = 0)” and the “Absolute Eosinophils shift N-H, number of subjects” value [2] was 1. For the same substance, the “Absolute Eosinophils shift N-L, number of subjects” value [2] was “— (“—” = 0)”, the “Absolute Neutrophils shift H-N, number of subjects” value [2] was “— (“—” = 0)” and the “Absolute Neutrophils shift L-N, number of subjects” value [2] was “— (“—” = 0)”. For the same substance, the “Absolute Neutrophils shift N-H, number of subjects” value [2] was “— (“—” = 0)”, the “Absolute Neutrophils shift N-L, number of subjects” value [2] was “— (“—” = 0)” and the “Absolute Reticulocytes shift H-N, number of subjects” value [2] was “— (“—” = 0)”. For the same substance, the “Absolute Reticulocytes shift L-N, number of subjects” value [2] was “— (“—” = 0)”, the “Absolute Reticulocytes shift N-H, number of subjects” value [2] was 2 and the “Absolute Reticulocytes shift N-L, number of subjects” value [2] was “— (“—” = 0)”. The “Eosinophils shift H-N, number of subjects” value [2] was 2, the “Eosinophils shift L-N, number of subjects” value [2] was “— (“—” = 0)” and the “Eosinophils shift N-H, number of subjects” value [2] was “— (“—” = 0)”. For the same substance, the “Eosinophils shift N-L, number of subjects” value [2] was “— (“—” = 0)”, the “Hematocrit shift H-N, number of subjects” value [2] was “— (“—” = 0)” and the “Hematocrit shift L-N, number of subjects” value [2] was “— (“—” = 0)”. For the same substance, the “Hematocrit shift N-H, number of subjects” value [2] was “— (“—” = 0)”, the “Hematocrit shift N-L, number of subjects” value [2] was “— (“—” = 0)” and the “Hemoglobin shift H-N, number of subjects” value [2] was “— (“—” = 0)”. For the same substance, the “Hemoglobin shift L-N, number of subjects” value [2] was 1, the “Hemoglobin shift N-H, number of subjects” value [2] was “— (“—” = 0)” and the “Hemoglobin shift N-L, number of subjects” value [2] was 1. For the same substance, the “Lymphocytes shift H-N, number of subjects” value [2] was “— (“—” = 0)”, the “Lymphocytes shift L-N, number of subjects” value [2] was 1 and the “Lymphocytes shift N-H, number of subjects” value [2] was “— (“—” = 0)”.
